We go through two substances from article doi:10.1101/2023.01.30.526221.

The target of experiment [1] is PfRIPR tail (Plasmodium falciparum) (UniProt O97302). Briefly: SPR. On the technique in general: SPR reads the build-up and loss of mass on a sensor chip optically.
The target of experiment [2] is PfRIPR (Plasmodium falciparum) (UniProt O97302). Briefly: SPR.
Experiment [3] addresses full-length human basigin (human). Briefly: MST.
The target of experiment [4] is basigin ectodomain (human). As to the kind of experiment: MST.

In the case of PfCSS-PfPTRAMP complex, the Kd in experiment [1] and in experiment [2] was 3000 nM throughout.

In the case of PfRH5 (natural protein), the values for the Kd in experiment [3] and in experiment [4] were 120 nM and 190 nM, respectively.
